Test [1] has as its target PD-L1 on PD-L1 target cells (Homo sapiens (Human)) (UniProt Q9NZQ7). Description: cell-based or functional assay.
In test [2] the target is recombinant human TGF-β (human) (UniProt P01137). The test can be described thus: cell-based or functional assay.
Another test deals with rat PD-L1 protein (rat, UniProt D4AE25 19-239). Description: ELISA, coated rat PD-L1. As to the method:
(§1) ELISA testing was carried out to evaluate the binding of chimeric antibodies to human PD-L1, mouse PD-L1, rat PD-L1, and cynomolgus PD-L1, respectively.
(§2) Briefly, microtiter plates were coated with human, mouse, rat and cynomolgus PD-L1 proteins at 0.5 µg/ml in PBS, 100 µl/well at 4° C. overnight, then blocked with 150 µl/well of 1% BSA. Three-fold dilutions of chimeric antibodies starting from 10 µg/ml were added to each well and incubated for 1 hour at 37° C. The plates were washed with PBS/Tween and then incubate with mouse-anti-human IgG Fab antibody conjugated with Horse Radish Peroxidase (HRP) for 30 mins at 37° C. After washing, the plates were developed with TMB substrate and analyzed by spectrophotometer at OD 450 nm.

The target in the next test is mouse PD-L1 protein (mouse, UniProt Q9EP73 19-239, limits assumed). Description: ELISA, coated mouse PD-L1. As to the method:
as §1, §2
Background: ELISA stands for enzyme-linked immunosorbent assay.

rat PD-L1 protein, sequence (D4AE25 entry or part of it limits assumed): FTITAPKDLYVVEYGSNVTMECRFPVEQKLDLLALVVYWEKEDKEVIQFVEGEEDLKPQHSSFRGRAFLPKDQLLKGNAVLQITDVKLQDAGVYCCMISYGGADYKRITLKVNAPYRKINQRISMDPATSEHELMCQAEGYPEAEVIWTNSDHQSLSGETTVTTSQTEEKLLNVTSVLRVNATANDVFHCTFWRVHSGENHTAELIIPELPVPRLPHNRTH
mouse PD-L1 protein, sequence (Q9EP73 19-239 limits assumed): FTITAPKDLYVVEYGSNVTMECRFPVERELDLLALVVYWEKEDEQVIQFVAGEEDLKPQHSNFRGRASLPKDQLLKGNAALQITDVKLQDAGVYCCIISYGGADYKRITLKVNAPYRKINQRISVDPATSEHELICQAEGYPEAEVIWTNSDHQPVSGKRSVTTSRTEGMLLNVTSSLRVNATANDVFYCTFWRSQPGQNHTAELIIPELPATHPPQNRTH
recombinant human TGF-β (human), sequence (P01137 279-390 limits assumed): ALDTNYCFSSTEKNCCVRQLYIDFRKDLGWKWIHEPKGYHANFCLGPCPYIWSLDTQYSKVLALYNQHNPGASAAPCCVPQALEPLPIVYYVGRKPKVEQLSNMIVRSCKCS
PD-L1 on PD-L1 target cells (Homo sapiens (Human)), sequence (Q9NZQ7 19-290 limits assumed): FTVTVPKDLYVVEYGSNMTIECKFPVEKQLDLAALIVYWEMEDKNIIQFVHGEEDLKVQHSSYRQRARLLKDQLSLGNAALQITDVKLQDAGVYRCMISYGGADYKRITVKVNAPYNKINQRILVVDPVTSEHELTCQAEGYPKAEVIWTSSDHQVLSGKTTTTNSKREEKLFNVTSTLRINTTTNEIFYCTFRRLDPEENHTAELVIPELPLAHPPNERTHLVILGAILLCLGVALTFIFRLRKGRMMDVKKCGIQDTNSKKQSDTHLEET

For M7824 (bintrafusp alfa), the NFAT-RE-mediated luminescence, PD1 effector cells co-cultured with PD-L1 target cells in test [1] is 0.85 nM. Moreover, the TGF-β SMAD luciferase reporter assay in transfected 293 cells in test [2] is 0.0669 nM.

B1: 47C6A3 chimeric mAb (antibody, V domains shown)
VH: DVQLQESGPGLVKPSQSLSLTCTVTGYSITSDYAWNWIRQFPGNKLEWMGYIIYSGSTSYNPSLKSRISITRDTSKNQFFLQLNSVTTEDTATYYCARSTMIATNWFAYWGQGTLVTVSA
VL: DIVMTQSHKFMSTSVVDRVSITCKASQDVSLAVAWYQQKPGQSPKLLIYWASTRHTGVPDRFTGSGSGTDFALTISSVQAEDLALYYCQQHYITPWTFGGGTKLEIK
notes: also called 47C6A3-chimera
For the molecule B1, the binding result in the test with rat PD-L1 protein and with mouse PD-L1 protein was “no binding (tested: starting from 10 µg/ml)” each time.

B2: 89C10H8 chimeric mAb (antibody, V domains shown)
VH: EVQLVESGGGLVQPGRSLTLSCVASGFTFSNYWMTWIRQAPGKGLEWVASITNTGSSTFYPDSVKGRFTISRDNTRSTLFLQINSLRSEDTATYYCTRDTTIAPFDYWGQGVMVTVSS
VL: DIQMTQSPSFLSASVGDRVTITCKASQNLNEYLNWYQQKLGEAPKRLIYKTNTLQAGIPSRFSGSGSGIDYTLTISSLQPEDVATYFCSQYNSGNTFGAGTKLELK
notes: also called 89C10H8-chimera
Turning to B2, the binding result with rat PD-L1 protein and in the test with mouse PD-L1 protein was “no binding (tested: starting from 10 µg/ml)” in each case.

B3: 67F3G7 chimeric mAb (antibody, V domains shown)
VH: QVKLLQSGAALVKPGASVKMSCKASGYIFTDFWVSWVKQSHEKSLEWIGEIYPNSGVSRYNEKFKGRATMTVDKSTSTAYLELSRLTSEDSAIYYCTKYFGYTYWFGYWGQGTLVTVSS
VL: DTVLTQSPALAVSLGQRITISCRASKSVSTYMHWYQQRSGLQPKLLIYSASHLESGVPSRFSGSGSGTDFTLTIDPVEADDIANYYCQQSNELPVTFGSGTKLEIK
notes: also called 67F3G7-chimera
As to B3, the binding result in the test with rat PD-L1 protein and in the test with mouse PD-L1 protein was “no binding (tested: starting from 10 µg/ml)” each time.

Values taken from patent publication US11028174 (LEPU BIOPHARMA, dated 2021).
